The results in this text go back to patent US20190062399A1.

This experiment deals with B7-1Ig (CD80-Ig fusion protein) (UniProt P33681). In words: SPR kinetics (Biacore), 75-200 nM analyte over B7-1Ig chip (694 RU).

One may read the Kd as the concentration at which binding is half-saturated. Low readings indicate tighter binding, high ones weaker binding. In general, koff refers to the rate constant with which the complex falls apart. A high value points to a short-lived complex. For orientation: kon means the second-order rate constant of association. Higher therefore signals fast association.

Sequence of UniProt P33681 (P33681 35-242 limits assumed): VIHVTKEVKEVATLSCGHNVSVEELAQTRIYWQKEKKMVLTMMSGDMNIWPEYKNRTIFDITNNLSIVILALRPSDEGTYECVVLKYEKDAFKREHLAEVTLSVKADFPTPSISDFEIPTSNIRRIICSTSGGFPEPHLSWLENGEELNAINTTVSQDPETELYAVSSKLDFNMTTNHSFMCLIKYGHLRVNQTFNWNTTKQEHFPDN
Sequence of Protein A eluate of the HIC cleaning peak (mixture of all CTLA4-Ig species) (chain): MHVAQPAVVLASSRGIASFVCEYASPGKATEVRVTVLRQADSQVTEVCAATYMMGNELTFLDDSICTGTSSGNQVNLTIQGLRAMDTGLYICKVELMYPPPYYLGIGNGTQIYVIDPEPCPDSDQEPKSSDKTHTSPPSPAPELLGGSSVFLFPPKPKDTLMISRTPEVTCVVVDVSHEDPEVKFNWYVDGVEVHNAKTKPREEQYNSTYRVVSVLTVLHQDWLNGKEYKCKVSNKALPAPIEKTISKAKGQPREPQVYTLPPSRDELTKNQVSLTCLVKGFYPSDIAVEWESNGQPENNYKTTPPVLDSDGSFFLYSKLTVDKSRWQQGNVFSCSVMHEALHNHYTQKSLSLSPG

Take “Protein A eluate of the HIC cleaning peak (mixture of all CTLA4-Ig species)”: the Ka turned out to be 3.87e+07 M⁻¹, the dissociation constant (Kd) stood at 25.8 nM, the koff worked out at 0.00973 s⁻¹ and the kon was determined as 377000 M⁻¹ s⁻¹.
